Results on one molecule are retold here after PMC4484809, “Formation of a Trimeric Xpo1-Ran[GTP]-Ded1 Exportin Complex Modulates ATPase and Helicase Activities of Ded1”.

One series addresses Xpo1;Ran[GTP] Q71L (Saccharomyces cerevisiae;Saccharomyces …, UniProt P30822;P32835 1-1071;1-219, |Q71L). Put plainly: EMSA; no Ded1; no significant supershift; EMSA: 50 mM Tris pH 7.8, 60 mM NaCl, 2 mM MgCl2, 0.1 mg/mL BSA, 5% glycerol, 1 U/uL RNasin Plus, 0.01% NP-40, 1 mM DTT; 900 nM Ded1, 10 nM RNA, 20 min room temp.
The next series concerns the target Ded1 wild type (Saccharomyces cerevisiae, UniProt P06634 1-604). Put plainly: EMSA; 3 mM AMP-PNP; challenged with unlabeled 41mer RNA; EMSA: 50 mM Tris pH 7.8, 60 mM NaCl, 2 mM MgCl2, 0.1 mg/mL BSA, 5% glycerol, 1 U/uL RNasin Plus, 0.01% NP-40, 1 mM DTT; 900 nM Ded1, 10 nM RNA, 20 min room temperature, then 41mer competitor RNA (27 uM solution) 1 min before 7% native PAGE at 4 C. The conditions noted are these: protein: recombinant; tags: His-tag removed with preScission protease; N-terminal GP from vector; single-stranded.

The target in a further series is Ded1 sNES (Saccharomyces cerevisiae, UniProt P06634 =D+1-604, A2D;E6K;Q7K;V8F;Q9G;N10T;internal_change). The series can be described thus: EMSA; 3 mM AMP-PNP; bound to the same extent as wild-type Ded1; EMSA: 50 mM Tris pH 7.8, 60 mM NaCl, 2 mM MgCl2, 0.1 mg/mL BSA, 5% glycerol, 1 U/uL RNasin Plus, 0.01% NP-40, 1 mM DTT; 900 nM Ded1, 10 nM RNA, 20 min room temperature, then 41mer competitor RNA (27 uM solution) 1 min before 7% native PAGE at 4 C. The conditions noted are these: protein: recombinant; tags: His-tag removed with preScission protease; N-terminal GP from vector; single-stranded. (In EMSA bound probe runs differently from free probe, usually more slowly.)

B1: 25mer FAM-labeled ssRNA (ssRNA)
RNA: CGAAUUCAAAACAAAACAAAACUAG
Turning to B1, the binding result is recorded as “no binding” with Xpo1;Ran[GTP] Q71L, “binds” in the series with Ded1 wild type and “binds” in the series with Ded1 sNES.
